From paper PMC9870083

Molecular target: RARα (UniProt P10276)
Assay: Flag IP of RARα, GFP-p65 blot
Settings: reference: GFP-p65 wild type; sites S276

## RelA/p65 (from UniProt Q04206) GFP-p65-S276A
  binding against the reference: lost
